Laboratory results taken from article PMC314469, “Protein Interaction Networks by Proteome Peptide Scanning” (PLoS Biology, 2004).

T1: amphyphisin SH3 (AMPH_HUMAN), P49418
T1 chain: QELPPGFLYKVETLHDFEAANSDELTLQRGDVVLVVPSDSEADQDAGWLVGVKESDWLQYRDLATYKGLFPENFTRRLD


Target: T1, amphyphisin SH3 (AMPH_HUMAN), P49418
Test: SPOT array

Binder	normalised SPOT signal, Boehringer light units (BLU); mean over the file's lines of this peptide
HPLVPKRPDASFMA [P54368 201-214]	125
HHPWIRRPFFPFHS [P02511 6-19]	17.6
HLLLFHRPLRASGA [Q9HBK7 243-256]	1690
HVQSPEKPPTSPRE [BAC05287 132-146]	49.7
HTAEFRRPMATGDT [Q9H6N9 66-79]	45.7
ISQKIKRPANSGEL [Q9H4G7 129-142]	45.6
IAWGLRRPIRLQMQ [Q9H2L5 59-72]	489
HIPPPPRPPKRILE [P18031 304-318]	3540
ISPEFKRPRDIAVD [Q9NZR2 3964-3977]	30.4
HKGLPPRPPSHNRP [Q9P2Q2 580-594]	326
HLWQPKRPAVPKKA [Q96FM3 493-506]	17.3
ALQPPRRPKSSNPF [Q9Y6N1 67-80]	140
HTVELRRPSSDMEG [O14791 6-19]	50.5
ALPRPIRPHRNISA [O75163 275-288]	7780
HLSSPARPPDNLSP [Q9H7P8 659-673]	95.5
HPDLLRRPGARSTS [Q9BXK1 213-226]	29.9
HHGRIGRPPKYRKI [Q9Y4C9 401-414]	160
HSTGINRPKRTGSL [P28749 775-788]	2890
ALPSPLRPPAPPLP [Q9NR83 285-299]	299
HTKNLLRPTKLNLQ [Q9BXU7 768-781]	110
HVFQFTRPPRETPT [O75354 116-129]	4870

Binder	normalised SPOT signal, Boehringer light units (BLU); mean over the file's lines of this peptide
IDPAILRPGRPDQL [Q9HAP0 257-270]	220
HRSHLRRPAAPPSP [Q8WWE0 14-27]	58
IDPAILRPGRLDKT [O15381 730-743]	317
IDPAILRPGRLDQL [P55072 629-642]	304
HHHLPERPPFIPEG [O60747 405-419]	18
HLHILHRPWKSGLS [Q9P2Y4 181-194]	217
HSFLINRPGKVKYM [Q9H5T1 190-203]	202
HPGKPERPPPQGGN [P10163 94-108]	57.4
IAEALSRPGREASL [O15069 1001-1014]	932
HQEKPERPLRGGKS [Q9NWA6 173-186]	9960
ISTKLVRPKRKHGT [P42679 203-216]	2410
HKAHLIRPRRLTPG [O60281 1125-1138]	1070
IDEALLRPGRLEVK [P46459 379-392]	370
AAPEPKRPHIAQVP [Q9Y6X8 414-427]	7.5
HILLFRRPLPKKPK [P33551 65-78]	34.4
ALPRPLRPPLPPDP [O43763 237-251]	553
HYLVPVRPRRQIVY [Q9Y4V7 156-169]	5140
ISHLPSRPVKPNII [Q9BZQ1 159-172]	97.4
HLAFLKRPELGLTL [O15488 104-117]	36.5
HILLFRRPLPKDQQ [P33552 65-78]	12.1
HPEFLSRPIKPSPP [P17812 526-539]	75.1

Target: endophilin SH3 (SH3G2_HUMAN), Q99962
Test: SPOT array

Binder	normalised SPOT signal, Boehringer light units (BLU); mean over the file's lines of this peptide
HPLVPKRPDASFMA [P54368 201-214]	1970
HHPWIRRPFFPFHS [P02511 6-19]	1870
HLLLFHRPLRASGA [Q9HBK7 243-256]	33.5
HVQSPEKPPTSPRE [BAC05287 132-146]	49.6
HTAEFRRPMATGDT [Q9H6N9 66-79]	18.7
ISQKIKRPANSGEL [Q9H4G7 129-142]	24.2
IAWGLRRPIRLQMQ [Q9H2L5 59-72]	846
HIPPPPRPPKRILE [P18031 304-318]	4140
ISPEFKRPRDIAVD [Q9NZR2 3964-3977]	14.9
HKGLPPRPPSHNRP [Q9P2Q2 580-594]	5020
HLWQPKRPAVPKKA [Q96FM3 493-506]	816
ALQPPRRPKSSNPF [Q9Y6N1 67-80]	22500
HTVELRRPSSDMEG [O14791 6-19]	27.4
ALPRPIRPHRNISA [O75163 275-288]	5490
HLSSPARPPDNLSP [Q9H7P8 659-673]	76.9
HPDLLRRPGARSTS [Q9BXK1 213-226]	0.2
HHGRIGRPPKYRKI [Q9Y4C9 401-414]	150
HSTGINRPKRTGSL [P28749 775-788]	224
ALPSPLRPPAPPLP [Q9NR83 285-299]	1950
HTKNLLRPTKLNLQ [Q9BXU7 768-781]	61.7
HVFQFTRPPRETPT [O75354 116-129]	171

Binder	normalised SPOT signal, Boehringer light units (BLU); mean over the file's lines of this peptide
IDPAILRPGRPDQL [Q9HAP0 257-270]	169
HRSHLRRPAAPPSP [Q8WWE0 14-27]	55.2
IDPAILRPGRLDKT [O15381 730-743]	225
IDPAILRPGRLDQL [P55072 629-642]	87
HHHLPERPPFIPEG [O60747 405-419]	22.2
HLHILHRPWKSGLS [Q9P2Y4 181-194]	28.3
HSFLINRPGKVKYM [Q9H5T1 190-203]	117
HPGKPERPPPQGGN [P10163 94-108]	794
IAEALSRPGREASL [O15069 1001-1014]	142
HQEKPERPLRGGKS [Q9NWA6 173-186]	2060
ISTKLVRPKRKHGT [P42679 203-216]	97.8
HKAHLIRPRRLTPG [O60281 1125-1138]	1790
IDEALLRPGRLEVK [P46459 379-392]	0
AAPEPKRPHIAQVP [Q9Y6X8 414-427]	108
HILLFRRPLPKKPK [P33551 65-78]	153
ALPRPLRPPLPPDP [O43763 237-251]	3470
HYLVPVRPRRQIVY [Q9Y4V7 156-169]	3150
ISHLPSRPVKPNII [Q9BZQ1 159-172]	120
HLAFLKRPELGLTL [O15488 104-117]	28.8
HILLFRRPLPKDQQ [P33552 65-78]	40
HPEFLSRPIKPSPP [P17812 526-539]	45.5
